Reference: patent US20260092918A1

Target: H2-K (b) OVA 257-264 SIINFEKL peptide-MHC (mouse) (UniProt P01901)
Experiment: cell-based or functional assay

Sequence of UniProt P01901 (P01901 22-305 limits assumed): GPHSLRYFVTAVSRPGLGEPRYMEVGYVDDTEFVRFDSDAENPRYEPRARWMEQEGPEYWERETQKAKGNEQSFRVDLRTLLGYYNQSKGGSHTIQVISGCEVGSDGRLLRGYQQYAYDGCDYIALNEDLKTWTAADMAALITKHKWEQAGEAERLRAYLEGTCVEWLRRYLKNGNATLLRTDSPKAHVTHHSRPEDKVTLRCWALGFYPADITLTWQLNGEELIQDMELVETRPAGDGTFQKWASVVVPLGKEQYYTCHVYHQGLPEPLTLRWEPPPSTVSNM

OT-1 TCR on OT-1 T-cells showed a TCR tension signal, OT1 T-cells cultured in ACM relative to UCM (decrease) of 37 % decrease and a TCR tension signal, OT1 T-cells cultured in SCM relative to UCM (increase) of 1240 % increase.
